Measured values as given in article PMC6641176 (ACS Omega, 2017).
Residue numbers refer to the chain shown, from its start. Names and notes keep the numbering of the source.

B1: AqpZ-C20S (Escherichia coli aquaporin Z, C20S mutant) (natural protein)
chain: MFRKLAAECFGTFWLVFGGSGSAVLAAGFPELGIGFAGVALAFGLTVLTMAFAVGHISGGHFNPAVTIGLWAGGRFPAKEVVGYVIAQVVGGIVAAALLYLIASGKTGFDAAASGFASNGYGEHSPGGYSMLSALVVELVLSAGFLLVIHGATDKFAPAGFAPIAIGLALTLIHLISIPVTNTSVNPARSTAVAIFQGGWALEQLWFFWVVPIVGGIIGGLIYRTLLEKRD
B2: AqpZ-I176G (in the AqpZ-C20S background) (natural protein, Escherichia coli)
chain: B1 chain with I176G
B3: AqpZ-G144F (in the AqpZ-C20S background) (natural protein, Escherichia coli)
chain: B1 chain with G144F

Legend:
[1] = target: the molecule itself; assay: SDS-PAGE and western blot
[2] = target: the molecule itself; assay: SEC

Protein	stoichiometry N [1]	stoichiometry N [2]
B1	4	
B2		4
B3		4
